According to US9675707B2, “Anti-TAT226 antibodies and immunoconjugates” (GENENTECH, INC., priority 2006, dated 2017):
Changes are numbered by the printed parent chain. Blank lines part the entries; values can stand above or below the molecule they belong to. Where a SMILES comes first, the peptide text is derived from it. [ ]: non-standard residue; d: D form. The star is where a group is joined. Dolaproine = CO[C@@H]([C@@H]1CCCN1)[C@@H](C)C(=O)O; Dil = CC[C@H](C)[C@H](NC)[C@@H](CC(=O)O)OC; X1 = C[C@@H](N*)[C@@H](O)c1ccccc1; NMeV = CN[C@H](C(=O)O)C(C)C

How the values were obtained:
[1] = system: OVCAR3 cells; assay: OVCAR3 in vitro cell killing assay (CellTiter-Glo); type: cell-based, human; conditions: 5 days of incubation
Protocol: YWO.49.H2 and YWO.49.H6 ADCs were tested for the ability to inhibit proliferation of OVCAR3 cells. OVCAR3 cells were seeded in 96-well plates in RPMI with 20% FBS. Anti-MUC16/CA25 antibody conjugated to MC-vc-PAB-MMAE was used as a positive control. MUC16/CA25 is a known ovarian cancer antigen. See, e.g., Yin et al. (2001) J. Biol. Chem. 276:27371-27375. Anti-IL-8 antibody conjugated to MC-vc-PAB-MMAE was used as a negative control. After 5 days of incubation, cell viability was measured using the CellTiter-Glo™ Luminescent Cell Viability Assay (Promega, Madison, Wis.) according to the manufacturer's instructions. The scale on the y-axis of FIG. 17 indicates the relative light units, or “RLUs,” from luciferase luminescence, which is a measure of cell viability.

[2] = system: HCT116#9-4 cells; assay: In vitro cell killing assay using HCT116 transfected cells (CellTiter-Glo); type: cell-based, human; conditions: 3 days of incubation
Protocol: (§1) YWO.49.H2 and YWO.49.H6 ADCs were tested for the ability to inhibit proliferation of HCT116 cells, a colon cancer cell line, which had been stably transfected with nucleic acid encoding human TAT226. Untransfected HCT116 cells are normally about 5-6 fold less sensitive to free (unconjugated) MMAE than OVCAR3 cells.
Briefly, HCT116 cells were transfected as follows. Nucleic acid encoding epitope-tagged human TAT226 was constructed in the mammalian expression vector pcDNA3.1 (Invitrogen, Carlsbad, Calif.). The epitope tag consisted of amino acids 1-53 of the herpes simplex virus type 1 glycoprotein D (the “gD” tag), which replaced the signal sequence from amino acids 1-22 at the N-terminus of human TAT226. The recombinant vector was transfected into HCT116 cells using Lipofectamine200 (Invitrogen) according to the manufacturer's protocol. Transfected HCT116 cells were cultured in McCoy's 5a medium with 10% FBS and 0.4 mg/ml G418. Cells were stained using anti-gD antibodies and sorted by FACS to select for individual clones expressing recombinant gD:human TAT226 fusion protein. […]
To perform the cell killing assay, HCT116#9-4 cells were seeded in 96-well plates. […] After 3 days of incubation, cell viability was measured using the CellTiter-Glo™ Luminescent Cell Viability Assay (Promega, Madison, Wis.) according to the manufacturer's instructions.

[3] = system: Untransfected HCT116 cells; assay: Sensitivity of untransfected HCT116 cells to free MMAE; type: cell-based, human; conditions: untransfected HCT116 cells versus OVCAR3 cells
Protocol: as §1

[4] = molecular target: T1, TAT226 expressed on the surface of OVCAR3 (Homo sapiens, UniProt Q8N2G4); assay: FACS binding to TAT226 expressed on the surface of OVCAR3 cells; conditions: 5 μg/ml primary antibody, 1 hour on ice
T1 construct: TAT226 expressed on the surface of OVCAR3, a human ovarian cancer cell line; endogenous in cells; host or cells: OVCAR3
T1 sequence (Q8N2G4 21-117): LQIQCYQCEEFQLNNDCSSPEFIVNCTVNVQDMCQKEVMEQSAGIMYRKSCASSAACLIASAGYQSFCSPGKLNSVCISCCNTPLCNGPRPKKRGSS
Protocol: The ability of anti-TAT226 antibodies to bind to TAT226 expressed on the surface of OVCAR3, a human ovarian cancer cell line, was examined. Fluorescence-activated cell sorting (FACS) was performed on OVCAR3 cells in the absence and in the presence of YWO.49, YWO.49.B7, YWO.49.C9, YWO.49.H2, or YWO.49.H6. Briefly, detached cells were incubated with 5 μg/ml primary antibody for 1 hour on ice, washed, and incubated with secondary antibody (anti-human IgG conjugated to phycoerythrin) for 30 minutes on ice. FACS was performed using a FACScan™ flow cytometer (BD Biosciences, San Jose, Calif.).
The peaks on the left side of each graph represent “background” binding, i.e., binding of secondary antibody only. The peaks on the right side of each graph represent binding of the indicated anti-TAT226 antibody.

[5] = molecular target: T2, TAT226-His (Homo sapiens, UniProt Q8N2G4); assay: Binding affinity for recombinant antigen by surface plasmon resonance (BIACORE 3000); conditions: immobilized antibody, TAT226-His 0.7 nM to 500 nM, 25° C., one-to-one Langmuir model; for kon/10^5: association rate; for koff/10^−4: dissociation rate
T2 construct: polyhistidine (C); made in house
T2 sequence (Q8N2G4 21-115): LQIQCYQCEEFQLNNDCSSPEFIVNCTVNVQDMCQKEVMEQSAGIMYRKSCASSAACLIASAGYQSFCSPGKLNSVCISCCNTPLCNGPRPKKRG
Protocol: The binding affinity of YWO.49, YWO.49.B7, YWO.49.C9, YWO.49.H2, and YWO.49.H6 for recombinant antigen was determined by surface plasmon resonance measurement using a BIACORE® 3000 system (Biacore, Inc., Piscataway, N.J.). Briefly, carboxymethylated dextran biosensor chips (CMS, Biacore Inc.) were activated with N-ethyl-N′-(3-dimethylaminopropyl)-carbodiimide hydrochloride (EDC) and N-hydroxysuccinimide (NHS) according to the supplier's instructions. Anti-TAT226 antibody was diluted to 5 ug/ml with 10 mM sodium acetate, pH 4.8, before injection at a flow rate of 5 ul/minute to achieve approximately 500 response units (RU) of coupled antibody. Next, 1M ethanolamine was injected to block unreacted groups. For kinetics measurements, two-fold serial dilutions of TAT226-His (0.7 nM to 500 nM) were injected in PBS with 0.05% Tween 20 at 25° C. at a flow rate of 25 μl/min. Association rates (kon) and dissociation rates (koff) were calculated using a simple one-to-one Langmuir binding model (BIAevaluation Software version 3.2). The equilibrium dissociation constant (Kd) was calculated as the ratio koff/kon.

Molecule: CC[C@H](C)[C@@H]([C@@H](CC(=O)N1CCC[C@H]1[C@H](OC)[C@@H](C)C(=O)N[C@H](C)[C@@H](O)c1ccccc1)OC)N(C)C(=O)[C@@H](NC(=O)[C@@H](NC)C(C)C)C(C)C [free MMAE, mono-methyl auristatin E] (H-[NMeV]V[Dil][Dolaproine]-X1)
IC50 [1]: ~100 pM
IC50 [2]: ~900 pM
fold less sensitive than OVCAR3 cells [3]: 5-6 fold

binding to OVCAR3 cells by FACS [4]: did not bind significantly
kon/10^5 [5]: 0.27
koff/10^−4 [5]: <0.05
B1: YWO.49.B7: affinity matured anti-TAT226 antibody derived from YWO.49, reformatted as full-length IgG (antibody, V domains shown)
VH: EVQLVESGGGLVQPGGSLRLSCAASGFTITNYGIHWVRQAPGKGLEWVGRIYPDSGATYYADSVKGRFTISADTSKNTAYLQMNSLRAEDTAVYYCARKLWVSLAAMDYWGQGTLVTVSS
VL: DIQMTQSPSSLSASVGDRVTITCRASQDVSTAVAWYQQKPGKAPKLLIYSASFLYSGVPSRFSGSGSGTDFTLTISSLQPEDFATYYCQRSVFTPPAFGQGTKVEIKR

kon/10^5 [5]: 1.86
koff/10^−4 [5]: 0.09
B2: YWO.49.H6: affinity matured anti-TAT226 antibody derived from YWO.49, reformatted as full-length IgG (antibody, V domains shown)
VH: B1 VH with V102I, L104I, A106G
VL: B1 VL with R90H, V92Y, F93A, P96F, A97T

kon/10^5 [5]: 1.53
koff/10^−4 [5]: <0.05
B3: YWO.49.C9: affinity matured anti-TAT226 antibody derived from YWO.49, reformatted as full-length IgG (antibody, V domains shown)
VH: B1 VH with S103T, A106S
VL: B1 VL with R90K, V92Y, F93N, A97T
binding to OVCAR3 cells by FACS [4]: comparable to that observed for YWO.49.H2 and YWO.H6

kon/10^5 [5]: 0.22
B4: YWO.49.H2: affinity matured anti-TAT226 antibody derived from YWO.49, reformatted as full-length IgG (antibody, V domains shown)
VH: B1 VH with A106P
VL: B1 VL with R90Q, V92Y, F93G, P96F, A97I
